Positions count from the first letter of the chain named. Like-named read-outs stand apart in the source and are kept apart here.
B1: F332-10B6 (antibody, mouse IgG2a, V domains shown)
VH: QVQLQQPGAELGKPGTSVNLSCKASGYTFTDYWIHWVKQRPGQGLEWIGNINPNSGDTNYNENFKTKATLTVDRSSSTAYMQLSSLTSEDSAVYYCTRDISGQYYFDFWGQGTTLTVSS
VL: DIVMSQSPSSLAVSAGEKVTMSCKSSQSLLNSRTRKNYLAWYQQKPGQSPKLLIYWASTRESGVPDRFTGSGSGTDFTLTISSVQAEDLAVYYCIQSYNLRTFGGGTKLEIK
notes: also called F332-10B6-2; F332-12B5-1
B2: F332-13B4 (antibody, mouse IgG2a, V domains shown)
VH: QVQLQQSGPELVKPGASVKISCKASGYSFTNSYVHWVKQTPGQGLEWIGWIYPGSTNIKYNEKFKGKATLTADTSSSTVYMQLSSLTSEDSAVYFCARDGSYFFDYWGQGTTLTVSS
VL: B1 VL with S22T, I95K, N99I
notes: also called F332-13B4-2

Tests used:
human CD3 [1] = target: T1, human CD3 (human, UniProt P07766 23-207; P09693 23-182; P04234 22-171); test: flow cytometry, negative control on CD3+ Jurkat cells
human CD3 [2] = target: T1, human CD3; test: flow cytometry, AF488-labeled mAb on CD3+ Jurkat cells
human CD3 [3] = target: T1, human CD3; test: apparent KD (KDapp), flow cytometry titration on Jurkat cells
Procedure: Unless otherwise stated, all media are kept are 4° C. and all incubations are performed on wet ice. Exponentially growing Jurkat cells were centrifuged and resuspended in complete medium at a cell density of 2×10⁶ cells/mL. Fifty μL/well of cells were distributed in a polypropylene v-bottom 96 well plate and serial 1/3 dilutions of purified mAbs starting at 300 nM were added and incubated for 2 hours. Cells were washed twice by centrifugation and further incubated with a FITC labeled F(ab′)2 goat anti-mouse antibody (Fc specific, #115-096-071, Jackson Immunoresearch, Cedarlane, Burlington, ON) for an hour. Cells were washed and re-suspended in medium containing Propidium iodide to exclude dead cells from analysis. Samples were filtered through a 60 μm nylon mesh filter plate (Millipore, Ireland) to remove cell aggregates. Flow cytometry analyses were performed on 2,000 viable single-cells events gated on forward scattering, side scattering parameters and propidium iodide dye exclusion using a BD-LSRFortessa flow cytometer (Becton-Dickinson Biosciences, CA, USA) and a standard filter set using BD FACSDiva™ acquisition software, according to manufacturer's instructions.

human CD3 [4] = target: T1, human CD3; test: flow competition on Jurkat, 100 nM unlabeled mAb; competitor AF488-OKT-3 mIgG2b 1.5 nM (self)
human CD3 [5] = target: T1, human CD3; test: flow competition on Jurkat, 100 nM unlabeled mAb; competitor AF488-UCHT1 5 nM
Procedure: (§1) In order to evaluate whether anti-CD3 monoclonal antibodies bind to the same epitope region, flow cytometry competition experiments on Jurkat cells were performed.
(§2) To that effect, a fixed concentration of the indicated AF488-labeled mAb were incubated with 100 nM of unlabeled monoclonal antibodies to assess if their binding capacity was impaired in presence of unlabeled mAbs. […] The AF488-OKT3 mIgG2b was labeled in-house using AlexaFluor488 protein labelling kit (Invitrogen #A10235) following manufacturer's instruction. The free dye removal step was done using Zeba™ Spin Desalting Columns, 7K MWCO (Thermo Scientific #89890). The final product was analyzed by UPLC-SEC to ensure the integrity of the labeled mAb.

human CD3 [6] = target: T1, human CD3; test: apparent KD (KDapp), flow cytometry titration on purified primary human T cells
Procedure: The binding characteristics of the purified anti-CD3 mAbs were assessed in titration studies on purified human primary T cells from different donor samples. Fresh ex vivo peripheral blood mononuclear cells (PBMCs) were obtained via density centrifugation over Ficoll-Paque using standard procedures and untouched T cell fractions obtained from PBMCs by negative pan-T cell selection and magnetic cell sorting. Starting from 300 nM concentrations of the anti-CD3 mAbs, eight point binding curves were generated from the resultant mean fluorescence intensity (MFI) values obtained through detection of labelled secondary antibody to bound CD3 in flow cytometry experiments (FIGS. 3A and 3B). Both commercial mouse anti-human CD3 mAb (OKT-3; Biolegend) and an in house generated IgG1 version of OKT-3 were employed as positive controls together with a non-specific mouse IgG serving as a negative binding control. Following curve fit analysis using one-site specific binding with Hill slope, the KDapp (concentration needed to achieve a half-maximum binding at equilibrium) for each mAb was calculated (Table 2).
Eight point binding titrations were performed with the anti-CD3 mAbs starting at either 300 or 100 nM on freshly purified human T cells obtained through negative selection from PBMC fractions. Briefly, 1×10⁵ human T cells (50 μL of staining buffer (SB; PBS/1% BSA/0.01% NaN3) were incubated with graded dilutions of the anti-CD3 mAbs in SB ([…]) for 2 hours at 4° C. in 96 w U-bottom plates, followed by plate washing with SB ([…]). Cell pellets were resuspended with 25 μL of a 0.25 mg/mL solution of the goat (Fab′)₂ anti-mouse IgG (H+L)− APC secondary antibody in SB, incubated at 4° C. (30 min.), washed 1× with SB, and resuspended for flow analysis. Recombinant anti-human OKT-3 IgG2b (in house produced) and non-specific mIgG were employed similarly as positive and negative controls respectively. 10K live events were acquired on a BD LSRFortessa flow analyzer and mean fluorescence intensities (MFI) calculated after subtraction of secondary antibody alone values. Using GraphPad Prism software, the data were analyzed using a one site specific binding with Hill slope non-linear regression model to calculate KDapp and BMax values (See Table 2).

human CD3 [7] = target: T1, human CD3; test: flow competition on Jurkat, 100 nM unlabeled mAb; competitor AF488-SP34.2 20 nM
Procedure: as §1, §2

human CD3 [8] = target: T1, human CD3; test: cell-based or functional assay
human CD3 [9] = target: T1, human CD3; test: flow competition on Jurkat, 100 nM unlabeled mAb; competitor AF488-SK7 1.5 nM
Procedure: as §1, §2

human CD3 [10] = target: T1, human CD3; test: flow competition on Jurkat, 100 nM unlabeled mAb; competitor AF488-SK7 1.5 nM (self)
Cynomolgus CD3 = target: T2, Cynomolgus CD3 (Cynomolgus, UniProt Q95LI5 22-198; Q95LI7 23-181; Q95LI8 22-171); test: apparent KD (KDapp), flow cytometry titration on cynomolgus HSC-F T cell line
T2 construct: whole, on cells; also called CD3 on Cynomolgus PBMCs; CD3 on HSC-F Cynomolgus T cell line
Procedure: To characterize potential cross-reactivity of the anti-human CD3 mAbs to NHP T cells, dose response flow cytometry titration studies were performed on both freshly obtained Cynomolgus PBMCs (Comparative Medicine and Animal Resources Centre—McGill University) or the Cynomolgus derived T cell line, HSC-F (Non-Human Primate Reagent Resource—NIH). Binding studies on fresh Cynomolgus PBMCs was performed on a subset of anti-CD3 mAbs (FIG. 4) whereas the Herpesvirus saimiri immortalized Cynomolgus T cell line HSC-F was employed for further evaluations (FIGS. 5A to 5C). KDapp values were calculated using a non-linear regression model of one-site binding with Hill slope (GraphPad Prism) and tabulated (Table 3b). Similar KDapp values for anti-CD3 mAb 1E2 obtained from binding to fresh Cynomolgus PBMCs (KDapp=0.28 nM) or the HSC-F T cell line (KDapp=0.39 nM) indicated the HSC-F cell line was a suitable surrogate for ex vivo NHP T cells.
HSC-F T cells obtained from the Non-Human Primate Reagent Resource (NIH) were maintained in culture in RPMI media containing 20% FBS and 40 IU/mL recombinant human IL2. 100K HSC-F cells in logarithmic cell growth were treated with graded doses of the anti-CD3 mAbs starting at 100 nM in staining buffer (SB; PBS/1% BSA/0.01% NaN3) for 2 hours at 4° C. in 96 w V-bottom plates. Following plate washing with SB, the cell pellets were resuspended with 25 μL of goat (Fab′)₂ anti-mouse IgG (H+L)− APC secondary antibody (final 5 μg/mL), incubated for 30 minutes at 4° C., followed by flow cytometry analysis. The commercial NHP cross-reactive SP34.2 anti-CD3 mAb (BD Biosciences), recombinant anti-human OKT-3 IgG2b (in house produced) and non-specific mIgG were employed as controls. 20K live events were acquired on a BD LSRFortessa flow analyzer and mean fluorescence intensities (MFI) calculated after subtraction of secondary antibody alone values. Using GraphPad Prism software, the data were analyzed using a one site specific binding with Hill slope non-linear regression model to calculate KDapp and BMax values (See Table 2).

human CD3 [11] = target: T1, human CD3; test: apparent KD (KDapp), flow cytometry titration of the AF488-labeled mAb on Jurkat cells
human CD3 [12] = target: T1, human CD3; test: flow competition on Jurkat, 100 nM unlabeled mAb; competitor AF488-SP34.2 20 nM (self)
human CD3 [13] = target: T1, human CD3; test: flow competition on Jurkat, 100 nM unlabeled mAb; competitor AF488-UCHT1 5 nM (self)
human CD3 [14] = target: T1, human CD3; test: flow cytometry, hybridoma supernatant on CD3+ Jurkat cells
Procedure: Cells were stained with either negative control mouse IgG (Jackson Immunoresearch cat #115-000-003) or an anti-GFP 3E6 mAb supernatant or tested hybridoma supernatant. Specific binding was reflected by the increase in the mean fluorescent intensity of antibody binding to Jurkat T-cells (FIGS. 1A to 1F, grey histograms) compared to the Jurkat CD3 negative cell line J.RT3-T3.5 (FIGS. 1A to 1F, open histograms). AF488 labeled positive control mAb OKT3 was also analyzed.

human CD3 [15] = target: T1, human CD3; test: flow competition on Jurkat, 100 nM unlabeled mAb; competitor AF488-OKT-3 mIgG2b 1.5 nM
Procedure: as §1, §2

human CD3 [16] = target: T1, human CD3; test: cell-based or functional assay; remark: listed apart in the source

Row | Molecule | MFI (human CD3 [2]) [MFI] | Kd (human CD3 [3]) [pM] | % residual fluorescence of labeled mAb (human CD3 [5]) [%] | Kd (human CD3 [6]) [pM] | % residual fluorescence of labeled mAb (human CD3 [7]) [%] | % residual fluorescence of labeled mAb (human CD3 [9]) [%] | Kd (Cynomolgus CD3) [pM] | other results
1 | Mouse IgG (antibody) | – | – | – | – | – | – | – | MFI (human CD3 [1]): 34 MFI
2 | OKT-3 AF488 (antibody) | 265 | – | – | – | – | – | – | –
3 | recombinant mouse IgG2b OKT-3 produced in-house (antibody) | – | 130 to 230 | 11 | 30 | 26 | 6 | – | % residual fluorescence of labeled mAb (human CD3 [4]): 8%; % max ref. OKT3 (dTomato activation) (human CD3 [8]): 105%; EC50 of dTomato induction (CD69 promoter), Jurkat-CD69-dTomato cells, 24 h (human CD3 [8]): 0.17 µg/mL; IC50, indirect ADC surrogate growth inhibition (anti-mouse-DM1) on Jurkat cells (human CD3 [8]): 57 pM; Span, indirect ADC surrogate growth inhibition on Jurkat cells (human CD3 [8]): 91%
4 | SK7 (antibody) | 311 | – | 14 | – | 58 | – | – | % residual fluorescence of labeled mAb (human CD3 [10]): 9%
5 | SP34.2 (antibody) | – | – | 49 | 1770 | – | 29 | 1290 | Kd (human CD3 [11]): 10800 pM; % residual fluorescence of labeled mAb (human CD3 [12]): 10%
6 | UCHT1 (antibody) | 293 | – | – | – | 54 | 7 | – | % residual fluorescence of labeled mAb (human CD3 [13]): 8%
7 | B1 | – | 3700 | 80 | 30100 | 32 | 56 | 2000 | MFI (human CD3 [14]): 143 MFI; % residual fluorescence of labeled mAb (human CD3 [15]): 94%; % max ref. OKT3 (dTomato activation) (human CD3 [16]): 60%; EC50 of dTomato induction (CD69 promoter), Jurkat-CD69-dTomato cells, 24 h (human CD3 [16]): 0.23 µg/mL
8 | B2 | – | 600 | 72 | 50 | 8 | 43 | 640 | MFI (human CD3 [14]): 373 MFI; % residual fluorescence of labeled mAb (human CD3 [15]): 79%; % max ref. OKT3 (dTomato activation) (human CD3 [16]): 90%; EC50 of dTomato induction (CD69 promoter), Jurkat-CD69-dTomato cells, 24 h (human CD3 [16]): 0.47 µg/mL

Source: patent US20250051443A1 (NATIONAL RESEARCH COUNCIL OF CANADA, published 2025)
